Laboratory results published in the supplement of paper PMC11246515.
± gives the standard deviation of the averaged measurements.

Experiment: total protein half-life in vivo (active degradation + dilution); higher = more stable protein
[1] = E. coli NCM3722 delta-clpP delta-lon delta-hslV, growth: N-lim chemostat, doubling time 6 h
[2] = E. coli NCM3722 delta-clpP, growth: N-lim chemostat, doubling time 6 h
[3] = E. coli NCM3722 delta-lon, growth: N-lim chemostat, doubling time 6 h
[4] = E. coli NCM3722 delta-smpB, growth: N-lim chemostat, doubling time 6 h
[5] = wild type E. coli NCM3722, growth: C-lim chemostat, doubling time 3 h
[6] = wild type E. coli NCM3722, growth: C-lim chemostat, doubling time 6 h
[7] = wild type E. coli NCM3722, growth: C-lim chemostat, doubling time 12 h
[8] = wild type E. coli NCM3722, growth: N-lim chemostat, doubling time 6 h
[9] = wild type E. coli NCM3722, growth: N-lim chemostat, doubling time 12 h
[10] = wild type E. coli NCM3722, growth: P-lim chemostat, doubling time 6 h
[11] = wild type E. coli NCM3722, growth: P-lim chemostat, doubling time 12 h
[12] = E. coli NCM3722 delta-hslV, growth: N-lim chemostat, doubling time 6 h

| Sequence | total protein half-life in vivo [1] [h] | total protein half-life in vivo [2] [h] | total protein half-life in vivo [3] [h] | total protein half-life in vivo [4] [h] | total protein half-life in vivo [5] [h] | total protein half-life in vivo [6] [h] | total protein half-life in vivo [7] [h] | total protein half-life in vivo [8] [h] | total protein half-life in vivo [9] [h] | total protein half-life in vivo [10] [h] | total protein half-life in vivo [11] [h] | total protein half-life in vivo [12] [h] |
| --- | --- | --- | --- | --- | --- | --- | --- | --- | --- | --- | --- | --- |
| MNDYKMTPGERRATWGLGTVFSLRMLGMFMVLPVLTTYGMALQGASEALIGIAIGIYGLTQAVFQIPFGLLSDRIGRKPLIVGGLAVFAAGSVIAALSDSIWGIILGRALQGSGAIAAAVMALLSDLTREQNRTKAMAFIGVSFGITFAIAMVLGPIITHKLGLHALFWMIAILATTGIALTIWVVPNSSTHVLNRESGMVKGSFSKVLAEPRLLKLNFGIMCLHILLMSTFVALPGQLADAGFPAAEHWKVYLATMLIAFGSVVPFIIYAEVKRKMKQVFVFCVGLIVVAEIVLWNAQTQFWQLVVGVQLFFVAFNLMEALLPSLISKESPAGYKGTAMGVYSTSQFLGVAIGGSLGGWINGMFDGQGVFLAGAMLAAVWLTVASTMKEPPYVSSLRIEIPANIAANEALKVRLLETEGIKEVLIAEEEHSAYVKIDSKVTNRFEIEQAIRQA | 5.51 | 5.38 ± 0.66 | 5.73 ± 0.96 | 5.16 ± 0.38 | 3.17 ± 0.88 | 5.45 ± 0.11 | 11.2 ± 1.9 | 5.15 ± 0.25 | 10.1 ± 0.3 | 5.42 ± 0.72 | 8.82 ± 0.54 |  |
| MASSGTTSTRKRFTGAEFIVHFLEQQGIKIVTGIPGGSILPVYDALSQSTQIRHILARHEQGAGFIAQGMARTDGKPAVCMACSGPGATNLVTAIADARLDSIPLICITGQVPASMIGTDAFQEVDTYGISIPITKHNYLVRHIEELPQVMSDAFRIAQSGRPGPVWIDIPKDVQTAVFEIETQPAMAEKAAAPAFSEESIRDAAAMINAAKRPVLYLGGGVINAPARVRELAEKAQLPTTMTLMALGMLPKAHPLSLGMLGMHGVRSTNYILQEADLLIVLGARFDDRAIGKTEQFCPNAKIIHVDIDRAELGKIKQPHVAIQADVDDVLAQLIPLVEAQPRAEWHQLVADLQREFPCPIPKACDPLSHYGLINAVAACVDDNAIITTDVGQHQMWTAQAYPLNRPRQWLTSGGLGTMGFGLPAAIGAALANPDRKVLCFSGDGSLMMNIQEMATASENQLDVKIILMNNEALGLVHQQQSLFYEQGVFAATYPGKINFMQIAAGFGLETCDLNNEADPQASLQEIINRPGPALIHVRIDAEEKVYPMVPPGAANTEMVGE | 2.91 ± 0.088 | 1.25 ± 0.025 | 1.6 ± 0.46 | 1.43 ± 0.086 | 2.4 ± 0.39 | 2.86 ± 0.38 | 4.64 ± 1.5 | 1.4 ± 0.11 | 2.49 | 4.5 | 8.65 ± 1.8 | 1.28 ± 0.21 |
| MEIREGHNKFYINDKQGKQIAEIVFVPTGENLAIIEHTDVDESLKGQGIGKQLVAKVVEKMRREKRKIIPLCPFAKHEFDKTREYDDIRS |  |  |  |  |  |  |  |  | > 16 |  | 12 |  |
| MSLPMLQVALDNQTMDSAYETTRLIAEEVDIIEVGTILCVGEGVRAVRDLKALYPHKIVLADAKIADAGKILSRMCFEANADWVTVICCADINTAKGALDVAKEFNGDVQIELTGYWTWEQAQQWRDAGIGQVVYHRSRDAQAAGVAWGEADITAIKRLSDMGFKVTVTGGLALEDLPLFKGIPIHVFIAGRSIRDAASPVEAARQFKRSIAELWG | 5.41 | 2.49 |  | 4.15 ± 2.2 | 2.29 ± 0.076 | 5.11 ± 1.5 | 5.84 ± 1.4 |  |  | 2.69 | 3.39 | 2.68 |
| MTRPVTLSEPHFSQHTLNKYASLMAQGNGYLGLRASHEEDYTRQTRGMYLAGLYHRAGKGEINELVNLPDVVGMEIAINGEVFSLSHEAWQRELDFASGELRRNVVWRTSNGSGYTIASRRFVSADQLPLIALEITITPLDADASVLISTGIDATQTNHGRQHLDETQVRVFGQHLMQGSYTTQDGRSDVAISCCCKVSGDVQQCYTAKERRLLQHTSAQLHAGETMTLQKLVWIDWRDDRQAALDEWGSASLRQLEMCAQQSYDQLLAASTENWRQWWQKRRITVNGGEAHDQQALDYALYHLRIMTPAHDERSSIAAKGLTGEGYKGHVFWDTEVFLLPFHLFSDPTVARSLLRYRWHNLPGAQEKARRNGWQGALFPWESARSGEEETPEFAAINIRTGLRQKVASAQAEHHLVADIAWAVIQYWQTTGDESFIAHEGMALLLETAKFWISRAVRVNDRLEIHDVIGPDEYTEHVNNNAYTSYMARYNVQQALNIARQFGCSDDAFIHRAEMFLKELWMPEIQPDGVLPQDDSFMAKPAINLAKYKAAAGKQTILLDYSRAEVNEMQILKQADVVMLNYMLPEQFSAASCLANLQFYEPRTIHDSSLSKAIHGIVAARCGLLTQSYQFWREGTEIDLGADPHSCDDGIHAAATGAIWLGAIQGFAGVSVRDGELHLNPALPEQWQQLSFPLFWQGCELQVTLDAQRIAIRTSAPVSLRLNGQLITVAEESVFCLGDFILPFNGTATKHQEDE | 5.63 |  |  |  |  |  |  |  |  |  |  |  |
| MSHQHTTQTSGQGMLERVFKLREHGTTARTEVIAGFTTFLTMVYIVFVNPQILGVAGMDTSAVFVTTCLIAAFGSIMMGLFANLPVALAPAMGLNAFFAFVVVQAMGLPWQVGMGAIFWGAIGLLLLTIFRVRYWMIANIPVSLRVGITSGIGLFIGMMGLKNAGVIVANPETLVSIGNLTSHSVLLGILGFFIIAILASRNIHAAVLVSIVVTTLLGWMLGDVHYNGIVSAPPSVMTVVGHVDLAGSFNLGLAGVIFSFMLVNLFDSSGTLIGVTDKAGLADEKGKFPRMKQALYVDSISSVTGSFIGTSSVTAYIESSSGVSVGGRTGLTAVVVGLLFLLVIFLSPLAGMVPGYAAAGALIYVGVLMTSSLARVNWQDLTESVPAFITAVMMPFSFSITEGIALGFISYCVMKIGTGRLRDLSPCVIIVALLFILKIVFIDAH | 6.67 ± 0.81 | 6.107 ± 0.041 | 5.93 | 5.32 ± 0.85 |  | 5.56 ± 0.18 | 12.7 ± 2.2 | 6.02 ± 0.079 |  | 5.99 ± 0.52 | 11.2 ± 0.99 | 5.86 ± 0.14 |
| MYERYAGLIFDMDGTILDTEPTHRKAWREVLGHYGLQYDIQAMIALNGSPTWRIAQAIIELNQADLDPHALAREKTEAVRSMLLDSVEPLPLVDVVKSWHGRRPMAVGTGSESAIAEALLAHLGLRHYFDAVVAADHVKHHKPAPDTFLLCAQRMGVQPTQCVVFEDADFGIQAARAAGMDAVDVRLL | 5.33 ± 0.13 |  | 4.41 | 1.29 | 2.62 ± 0.62 | 4.33 ± 0.098 | 6.18 |  |  | 2.46 ± 0.33 | 7.98 ± 0.48 |  |
| MADYQGKNVVIIGLGLTGLSCVDFFLARGVTPRVMDTRMTPPGLDKLPEAVERHTGSLNDEWLMAADLIVASPGIALAHPSLSAAADAGIEIVGDIELFCREAQAPIVAITGSNGKSTVTTLVGEMAKAAGVNVGVGGNIGLPALMLLDDECELYVLELSSFQLETTSSLQAVAATILNVTEDHMDRYPFGLQQYRAAKLRIYENAKVCVVNADDALTMPIRGADERCVSFGVNMGDYHLNHQQGETWLRVKGEKVLNVKEMKLSGQHNYTNALAALALADAAGLPRASSLKALTTFTGLPHRFEVVLEHNGVRWINDSKATNVGSTEAALNGLHVDGTLHLLLGGDGKSADFSPLARYLNGDNVRLYCFGRDGAQLAALRPEVAEQTETMEQAMRLLAPRVQPGDMVLLSPACASLDQFKNFEQRGNEFARLAKELG | 5.112 ± 0.021 | 4.445 ± 0.041 | 5.5 ± 0.35 | 4.73 ± 0.097 |  | 5.38 ± 0.69 | 12.18 ± 0.043 | 4.57 ± 0.075 | 9.03 ± 0.63 | 5.815 ± 0.041 |  | 4.9241 ± 0.00076 |
